# Assay results reported in patent US8840886B2, “Method of treating cancer with DLL4 antagonist and chemotherapeutic agent” (Regeneron Pharmaceuticals, Inc., priority 2009, dated 2014).
# B1: REGN421: anti-hDll4 antibody comprising HCVR/LCVR combination of SEQ ID NO:116/118 (antibody, V domains shown)
# VH: QVQLVESGGGVVQPGRSLRLSCAASGFTFSSYGMHWVRQAPGKGLEWVSFLWYDGTNKNYVESVKGRFTISRDNSKNMLYLEMNSLRAEDTAVYYCARDHDFRSGYEGWFDPWGQGTLVTVSS
# VL: EIVLTQSPATLSLSPGERATLSCRASQSVSSYLAWYQQKPGQAPRLLIYDASNRATGIPARFSGSGSGTDFTLTISSLEPEDFAVYYCQHRSNWPPTFGGGTKVEIK
# Test system: human VM-Cub1 tumor cells (bladder carcinoma cells)
# Assay: VM-Cub1 bladder carcinoma xenograft tumor growth, REGN421 with cisplatin (Example 1)
# Format: in vivo, mouse
# Details: for TGI: 3 doses, at day 32; for Euthanized: control cohort euthanized day 32; for TGD: time to 600 mm^3 vs control
# Experimental: The effect of anti-Dll4 antibody (REGN421) in combination with cisplatin (platinol, cis-diamminedichloroplatinum) on tumor growth was evaluated on tumors implanted in Severe Combined Immunodeficiency (SCID) mice expressing a humanized Dll4 protein (humanized Dll4 SCID mice). The humanized Dll4 SCID mouse was made by replacing the entire extracellular domain of the mouse Dll4 gene with the corresponding extracellular region of the human Dll4 gene (7 kb) in embryonic stem (ES) cells. Homozygous hDll4 mice were generated and bred into SCID background.
# Each mouse was implanted subcutaneously (sc) with 1×10^6 human VM-Cub1 tumor cells (bladder carcinoma cells) plus MATRIGEL™ (BD Biosciences, #354234). After the tumors were established in the mice (tumor size of 150-200 mm^3, approximately 14 days after implantation), tumors were measured, randomized and treated with hFc, REGN421, cisplatin, or combination of REGN421 and cisplatin. A total of 45 mice were divided into nine groups (n=5 per cohort). The first group was treated subcutaneously (sc) with hFc at 2 mg/kg; the second and third groups were treated sc with REGN421 at 0.5 and 2 mg/kg, respectively; the fourth and fifth groups were treated intraperitoneally (ip) with cisplatin at 0.5 and 2 mg/kg, respectively; the sixth group was treated sc with REGN421 at 0.5 mg/kg and ip with cisplatin at 0.5 mg/kg; the seventh group was treated sc with REGN421 at 0.5 mg/kg and ip with cisplatin at 2 mg/kg; the eighth group was treated sc with REGN421 at 2 mg/kg and ip with cisplatin at 0.5 mg/kg; and the ninth group was treated sc with REGN421 at 2 mg/kg and ip with cisplatin at 2 mg/kg. REGN421 was administered every 3-4 days starting on day 14 and mice received three doses total. Cisplatin was administered every 24 hours starting on day 14; mice received four doses total.
# To assess the effects of REGN421 and cisplatin as single agents or in combination treatments, the changes in tumor size were recorded. Tumor growth was measured three days before the initial REGN421 treatment, on the day of each REGN421 treatment (days 14, 17 and 21) and thereafter every 3-4 days until tumors reached ˜600 mm^3 in size. In vivo tumor size was calculated using the formula (length×width^2)/2 (FIG. 1 and Table 1).
# Tumor Growth Inhibition, TGI, was determined by calculating the difference in tumor size for treated (T) versus vehicle control (C) tumor at the day the control cohort was euthanized (i.e., at day 32); TGI=[1−(Tfinal−Tinitial)/(Cfinal−Cinitial)]×100.
# Tumor growth delay, TGD, was assessed as the difference in days between treated (T) versus control (C) tumors when each cohort reached a specified tumor size. The predetermined tumor size for this experiment was 600 mm^3.
molecule,measurement,setting,value
B1,TGI,REGN421 0.5 mg/kg/dose sc,−13.7%
same,Euthanized,REGN421 0.5 mg/kg/dose sc,32 days
same,TGD,REGN421 0.5 mg/kg/dose sc,0 days
same,TGI,REGN421 2 mg/kg/dose sc,83.1%
same,Euthanized,REGN421 2 mg/kg/dose sc,44 days
same,TGD,REGN421 2 mg/kg/dose sc,12 days
